Source: PMC10023573

Tested on: S9.6 anti-DNA:RNA hybrid monoclonal antibody, gold conjugate
Assay: immuno electron microscopy
Details: 10 ug/mL S9.6-gold, psoralen cross-linked, co-transcriptional R-loop (RNA hybrid), S9.6-gold 10 ug/mL with 80-100 ng pFC53, 1 h at 37 C, then 0.2% glutaraldehyde 15 min at 37 C, labeling buffer, salt and pH not given

Substance	binding signal (% of molecules labeled)	binding signal (% of molecules labeled) (labels cluster in Airn region)
pFC53 circular, T3-transcribed, R-loop in mAirn	50	–
pFC53 linear, T3-transcribed, R-loop in mAirn	–	50
